In paper PMC4533228:

Molecular target: homotypic K48-polyUb cyB1-NT^K64 (GST-bound single-lysine N-terminal fragment of cyclin B1 ubiquitinated with Ub^K48) (UniProt P0CG48)
Assay: pull-down; resin-bound polyUb conjugates (≈20 nM) incubated with purified 26S proteasomes (10 nM) at 4°C, washed; bound proteasomes measured by cleavage of suc-LLVY-AMC at 37°C (one panel also with 300 nM hHR23A)

Sequence of homotypic K48-polyUb cyB1-NT^K64 (GST-bound single-lysine N-terminal fragment of cyclin B1 ubiquitinated with Ub^K48) (P0CG48 whole entry, looked up, the tested form may be a part): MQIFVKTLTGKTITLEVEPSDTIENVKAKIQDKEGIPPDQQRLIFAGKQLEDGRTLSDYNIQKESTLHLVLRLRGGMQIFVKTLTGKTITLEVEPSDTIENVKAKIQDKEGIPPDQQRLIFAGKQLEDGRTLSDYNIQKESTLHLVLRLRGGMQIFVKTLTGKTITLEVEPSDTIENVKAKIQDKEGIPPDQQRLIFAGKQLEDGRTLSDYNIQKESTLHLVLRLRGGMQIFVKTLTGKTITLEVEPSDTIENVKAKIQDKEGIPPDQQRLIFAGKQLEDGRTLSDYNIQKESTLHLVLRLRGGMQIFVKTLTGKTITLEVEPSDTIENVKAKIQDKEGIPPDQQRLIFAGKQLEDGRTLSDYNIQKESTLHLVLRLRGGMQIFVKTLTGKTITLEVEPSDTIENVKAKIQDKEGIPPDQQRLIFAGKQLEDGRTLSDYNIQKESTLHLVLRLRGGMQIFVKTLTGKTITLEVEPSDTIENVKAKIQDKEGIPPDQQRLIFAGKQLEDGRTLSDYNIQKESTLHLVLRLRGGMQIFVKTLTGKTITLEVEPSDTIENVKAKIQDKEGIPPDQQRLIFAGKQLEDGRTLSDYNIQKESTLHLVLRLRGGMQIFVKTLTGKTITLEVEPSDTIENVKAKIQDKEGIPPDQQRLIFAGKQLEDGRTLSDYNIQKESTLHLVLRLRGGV

Work on “26S proteasome purified from rabbit muscle (complex)” yielded a fold binding relative to K11 chains (K11-polyUb cyB1-NT^K64) of 4.5 fold.
